In one experiment the target is Human FXI zymogen (human, UniProt P03951 19-625). Description: cell-based or functional assay.
The target in another experiment is Human FXI activated (human, UniProt P03951 19-387; P03951 388-625). The experiment is described as follows: cell-based or functional assay.
Chain of Human FXI activated (P03951 19-387 C226S limits assumed, chain 1 of 2): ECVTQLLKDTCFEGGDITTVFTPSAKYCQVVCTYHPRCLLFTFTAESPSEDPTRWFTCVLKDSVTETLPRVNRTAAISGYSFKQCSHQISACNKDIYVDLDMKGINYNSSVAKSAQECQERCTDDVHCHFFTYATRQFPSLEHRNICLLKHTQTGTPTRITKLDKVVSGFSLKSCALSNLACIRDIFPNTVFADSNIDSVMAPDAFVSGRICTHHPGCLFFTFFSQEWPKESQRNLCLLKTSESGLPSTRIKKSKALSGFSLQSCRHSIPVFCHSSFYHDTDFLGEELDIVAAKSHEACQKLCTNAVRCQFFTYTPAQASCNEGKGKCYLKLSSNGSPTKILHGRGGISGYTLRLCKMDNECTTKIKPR
Chain of Human FXI activated (P03951 388-625 limits assumed, chain 2 of 2): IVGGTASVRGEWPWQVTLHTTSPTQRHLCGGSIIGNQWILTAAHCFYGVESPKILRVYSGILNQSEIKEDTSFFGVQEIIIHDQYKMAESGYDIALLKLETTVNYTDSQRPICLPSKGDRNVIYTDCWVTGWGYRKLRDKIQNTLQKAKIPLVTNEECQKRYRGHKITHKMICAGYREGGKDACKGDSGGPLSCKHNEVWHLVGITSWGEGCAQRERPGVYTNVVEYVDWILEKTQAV

Chain of Human FXI zymogen (P03951 19-625 C226S limits assumed): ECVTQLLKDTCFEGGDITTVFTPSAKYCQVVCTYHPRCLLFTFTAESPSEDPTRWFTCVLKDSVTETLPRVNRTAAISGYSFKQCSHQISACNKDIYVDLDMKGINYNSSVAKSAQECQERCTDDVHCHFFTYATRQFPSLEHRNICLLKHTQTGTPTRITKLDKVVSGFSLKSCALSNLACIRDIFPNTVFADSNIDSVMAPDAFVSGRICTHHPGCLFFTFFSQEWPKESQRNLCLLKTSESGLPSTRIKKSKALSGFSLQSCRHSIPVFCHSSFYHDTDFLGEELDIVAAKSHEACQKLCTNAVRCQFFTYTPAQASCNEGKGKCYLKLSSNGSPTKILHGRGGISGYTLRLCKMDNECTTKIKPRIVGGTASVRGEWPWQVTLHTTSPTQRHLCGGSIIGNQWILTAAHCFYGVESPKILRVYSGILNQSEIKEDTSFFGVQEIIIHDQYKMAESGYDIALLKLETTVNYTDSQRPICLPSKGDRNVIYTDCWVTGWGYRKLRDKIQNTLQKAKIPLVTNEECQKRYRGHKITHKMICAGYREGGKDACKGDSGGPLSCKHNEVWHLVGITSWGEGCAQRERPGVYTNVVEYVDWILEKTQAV

B1: NOV1401-IgG (antibody, V domains shown)
VH: QVQLLESGGGLVQPGGSLRLSCAASGFTFSTAAMSWVRQAPGKGLEWVSGISGSGSSTYYADSVKGRFTISRDNSKNTLYLQMNSLRAEDTAVYYCARELSYLYSGYYFDYWGQGTLVTVSS
VL: QSVLTQPPSASGTPGQRVTISCSGSSSNIGSNDVSWYQQLPGTAPKLLIYKNYNRPSGVPDRFSGSKSGTSASLAISGLQSEDEADYYCSAWDQRQFDVVFGGGTKLTVLG
For the molecule B1, the “IC50, thrombin generation assay (TGA) in pooled human plasma” value with Human FXI zymogen stood at 24 nM. For the same molecule, in the experiment with Human FXI activated, the “IC50, inhibition of FXIa enzymatic activity (cleavage of the fluorescent peptide substrate BS-2494)” value was around 0.16 nM and the “IC50, inhibition of the enzymatic activity of full length human FXIa (cleavage of a fluorescently labelled peptide)” value was 0.16 nM.

For the origin of these results see US20230002507A1 (Novartis, published 2023).
